Reference: article PMC10797690, “The SIRT3-ATAD3A axis regulates MAM dynamics and mitochondrial calcium homeostasis in cardiac hypertrophy” (International Journal of Biological Sciences, 2024)

B1: ATAD3A-Flag [not stated] / itself (parent)
chain: MSWLFGIKGPKGEGTGPPLPLPPAQPGAESGGDRGAGDRPSPKDKWSNFDPTGLERAAKAARELEHSRHAKEALNLAQMQEQTLQLEQQSKLKEYEAAVEQLKSEQIRVQAEERRKTLNEETRQHQARAQYQDKLARQRYEDQLKQQQLLNEENLRKQEESVQKQEAIRRATVEREMELRHKNEMLRVEAEARARAKADRENADIIREQIRLKAAEHRQTILESIRTAGTLFGEGFRAFVTDWDKVTATVAGLTLLAVGVYSAKNATSVAGRYIEARLGKPSLVRETSRISVLEALRHPIQVSRRLVSRPQDALEGVILSPSLEARVRDIAIATRNTKKNKSLYRNVLMYGPPGTGKTLFAKKLALHSGMDYAIMTGGDVAPMGREGVTAMHKVFDWASTSRRGLLLFVDEADAFLRKRATEKISEDLRATLNAFLHRTGQHSNKFMLVLASNQPEQFDWAINDRIDEMVCFALPQREERERLVRMYFDKYVLKPATEGKQRLKVAQFDYGKKCSEVAQLTAGMSGREIAQLAVAWQAMAYSSEDGVLTEAMMDARVQDAVQQHQQKMQWLKVERPDSEASKPPHPSLLSC

Variants of: B1
Test: native gel electrophoresis (-DTT), anti-Flag immunoblot, oligomer band quantified
Conditions: with itself, H9c2 cells, n = 3, mean ± SEM, parent: 1, read off a plot

response [arbitrary] | Variant
0.42 | chain 1 K134A
1 | chain 1 K134E
0.16 | chain 1 K134Q
